# Results as given in US12091446.
# Tests used:
# [1] = target: SARS-COV-2 RBD Lambda variant (SARS-CoV-2)
# [2] = target: SARS-COV-2 RBD Mu variant (SARS-CoV-2)
# [3] = target: SARS-COV-2 RBD Beta variant (SARS-CoV-2)
# [4] = target: SARS-COV-2 RBD Gamma variant (SARS-CoV-2)
# Chain of huACE2-Fc (Q9BYF1 18-740): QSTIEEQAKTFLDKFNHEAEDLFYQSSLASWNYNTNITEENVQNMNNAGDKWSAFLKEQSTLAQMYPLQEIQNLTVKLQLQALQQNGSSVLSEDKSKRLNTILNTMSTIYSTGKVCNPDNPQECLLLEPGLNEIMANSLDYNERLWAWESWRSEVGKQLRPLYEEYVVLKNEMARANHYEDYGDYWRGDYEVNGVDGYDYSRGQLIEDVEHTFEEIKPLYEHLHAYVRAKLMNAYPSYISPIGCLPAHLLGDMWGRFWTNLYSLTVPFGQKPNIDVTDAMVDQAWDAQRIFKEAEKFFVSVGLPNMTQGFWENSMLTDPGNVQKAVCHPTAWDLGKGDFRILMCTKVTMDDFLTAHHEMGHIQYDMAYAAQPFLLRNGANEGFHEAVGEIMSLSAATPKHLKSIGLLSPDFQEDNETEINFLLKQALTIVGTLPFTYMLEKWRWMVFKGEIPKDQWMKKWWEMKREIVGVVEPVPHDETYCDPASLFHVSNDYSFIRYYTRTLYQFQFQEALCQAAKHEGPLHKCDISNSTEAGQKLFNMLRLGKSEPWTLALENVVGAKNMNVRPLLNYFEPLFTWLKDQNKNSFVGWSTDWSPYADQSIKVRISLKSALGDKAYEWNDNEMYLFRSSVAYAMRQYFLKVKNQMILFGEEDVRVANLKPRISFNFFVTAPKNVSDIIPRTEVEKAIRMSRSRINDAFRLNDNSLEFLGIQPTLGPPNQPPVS
substance,measurement,setting,value
huACE2-Fc (from UniProt Q9BYF1) (Fc fusion),Kd,[1],5.34 nM
same,Kd,[2],12.9 nM
same,Kd,[3],44.4 nM
same,Kd,[4],3.6 nM
